Measured values: patent publication US20100196361A1 (published 2010)

Biological target: T1, Tie1-Fc immobilized on a CM5 chip (species not stated)
T1 construct: also called immobilized Tie1-Fc
Assay: SPR, Tie1-Fc immobilized to the CM5 sensor chip, bivalent anti-Tie1 as analyte
Procedure: Affinity analysis of the Fab and IgGs was performed using surface plasmon resonance using a BIAcore 3000 instrument. For this analysis both dimeric (Tie1-Fc fusion protein) and monomeric (Tie1-HIS) versions of the extracellular domain of the Tie1 were used. The sensor chips used in these experiments were CM5 (dextran-coated) which allow immobilization of proteins to the chip via standard amine coupling chemistries. The concentration of flowed antibody was determined using a surface plasmon resonance based method. Using a high-density protein A sensor chip, under mass transport limited conditions, the response signal is dependent only on the concentration of the antibody in the sample under test. This approach allows a precise determination of the antibody concentration, a parameter important for accurate determination of the KD.

Kd: 0.2 nM
fold increase in affinity (against the anti-Tie1 Fab): > 10 fold
B1: DX-2220 (full length IgG1, germlined human anti-Tie1 antibody E3b) (antibody, V domains shown)
VH: EVQLLESGGGLVQPGGSLRLSCAASGFTFSMYGMVWVRQAPGKGLEWVSVISPSGGNTGYADSVKGRFTISRDNSKNTLYLQMNSLRAEDTAVYYCARAPRGYSYGYYYWGQGTLVTVSS
VL: DIQMTQSPSSLSASVGDRVTITCRASQGIGHYLAWYQQKPGKVPKLLIYTASTLQSGVPSRFSGSGSGTDFTLTISSLQPEDVATYYCQQFNSYPHTFGQGTRLEIKR
notes: Heavy and light chain frameworks germlined; also called E3b-IgG1; germlined E3b IgG1
